Source: paper PMC2818508

Legend:
[1] = target: Rac2 (prenylated Rac-GTP) (UniProt P15153); test: liposome co-sedimentation, WAVE2 quantified; conditions: reference: WAVE2 complex, not PP2A treated
prenylated Rac2-GTP = prenylated Rac2-GTP (UniProt P15153); test: co-sedimentation

% bound (of total WAVE2) (prenylated Rac2-GTP) [%] | % bound (of total WAVE2; PIP3 liposomes + Rac-GTP) (prenylated Rac2-GTP) [%] | Substance | other: % of total WAVE2 bound [1]
 |  | WAVE2 (from UniProt Q9Y6W5) PP2A treated WAVE2 complex | same; reference 56
55 | 79 | WAVE2 complex, PP2A treated (from UniProt Q9Y6W5 1-498; Q96F07 1-1278; Q9Y2A7 1-1128; Q8IZP0 1-508; Q8WUW1 1-75) | 
